Source: PMC13696528 (2026)
No end group written: not given here.

Biological target: PD-L1 (UniProt Q9NZQ7)
Assay: SPR

Chain of PD-L1 (Q9NZQ7 19-238): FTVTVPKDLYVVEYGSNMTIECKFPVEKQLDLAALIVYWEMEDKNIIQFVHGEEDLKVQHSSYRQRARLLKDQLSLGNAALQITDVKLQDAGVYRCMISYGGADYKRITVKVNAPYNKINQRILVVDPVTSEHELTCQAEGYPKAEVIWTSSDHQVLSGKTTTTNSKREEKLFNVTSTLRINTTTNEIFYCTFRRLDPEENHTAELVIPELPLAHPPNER

Work on NTGYFYGDQ (also: co-assembled nanofiber with IR-CF3) [PSP (PSP@IR-CF3 nanofiber)] yielded a Kd of 27.8 nM.
